In the RNAGym collection of RNA variant scans (doi:10.1021/acssynbio.7b00057):

B1: Pistol ribozyme (parent)
chain: GGGUCGUUGUUCCAUAAUCGCGUGGAUAUGGCACGCAAGUUUCUACCGGGCACCGUAAAUGUCCGACUGGAGCCGUUCGGGCGGCUAUAAACAGACCUCAGGCCCGAAGCGUGGCGGCACCUGCCGCCGGUGGUAAAAAAGAUCGGAAGAGCACACGUCU

Variants of: B1
Assay: aptazyme ON/OFF ratio, guanine; higher = stronger switching; co-transcriptional cleavage with and without guanine

Variant | aptazyme ON/OFF ratio
U7A U8G G9A U10G C12U C13G | 1.36
U7A U8G G9A U10G C12U C13A | 1.43
U7A U8G G9A U10G C12U C13U | 1.24
U7A U8G G9A C12G C13U | 1.37
U7A U8G G9A C12G C13A | 1.19
U7A U8G G9A C12G C13G | 1.81
U7A U8G G9A U10A C12A | 1.3
U7A U8G G9A U10A C12U | 1.37
U7A U8G G9A U10A C12G | 1.53
U7A U8G G9A U10C U11A C13G | 1.1
U7A U8G G9A U10C U11A C13A | 1.16
U7A U8G G9A U10C U11A C13U | 1.2
U7A U8G G9A U10C U11G C12U C13G | 1.33
U7A U8G G9A U10C U11G C12U C13A | 1.21
U7A U8G G9A U10C U11G C12U C13U | 1.23
U7A U8G G9A U10G U11C C12A C13U | 1.38
U7A U8G G9A U10G U11C C12A C13A | 1.2
U7A U8G G9A U10G U11C C12A C13G | 1.36
U7A U8G G9A U10C U11G C12A C13U | 1.28
U7A U8G G9A U10C U11G C12A C13A | 1.18
U7A U8G G9A U10C U11G C12A C13G | 1.19

Variant | aptazyme ON/OFF ratio
U7A U8G G9A U10A U11C C12G C13U | 1.33
U7A U8G G9A U10A U11C C12G C13G | 1.08
U7A U8G G9A U10A U11C C12G C13A | 1.21
U7A U8G G9C C12G C13U | 1.34
U7A U8G G9C C12G C13G | 1.18
U7A U8G G9C C12G C13A | 1.36
U7A U8G G9A U10A U11G C13G | 1.27
U7A U8G G9A U10A U11G C13U | 1.09
U7A U8G G9A U10A U11G C13A | 1.13
U7A U8G G9A U11A C12A | 1.56
U7A U8G G9A U11A C12U | 1.38
U7A U8G G9A U11A C12G | 1.37
U7A U8G G9A U10G U11A C12U | 1.12
U7A U8G G9A U10G U11A C12A | 1.28
U7A U8G G9A U10G U11A C12G | 1.28
U7A U8G G9C U10A U11G C12U C13U | 1.35
U7A U8G G9C U10A U11G C12U C13A | 1.21
U7A U8G G9C U10A U11G C12U C13G | 1.26
U7A U8G G9C U10A C12U C13U | 1.11
U7A U8G G9C U10A C12U C13G | 1.21
U7A U8G G9C U10A C12U C13A | 1.31

Variant | aptazyme ON/OFF ratio
U7A U8G G9A U10C U11G | 1.74
U7A U8G G9A U10C U11C | 1.02
U7A U8G G9A U10C U11A | 1.68
U7A U8G G9A U10C | 2.9
U7A U8G G9A U10G | 1.43
U7A U8G G9A U10A | 1.4
U7A U8G G9A U10G U11G C12U C13G | 1
U7A U8G G9A U10G U11G C12U C13A | 1.33
U7A U8G G9A U10G U11G C12U C13U | 1.22
U7A U8G G9A U10G C12A C13A | 1.39
U7A U8G G9A U10G C12A C13U | 1.31
U7A U8G G9A U10G C12A C13G | 1.13
U7A U8G G9C U10A C12A C13G | 1.26
U7A U8G G9C U10A C12A C13U | 1.32
U7A U8G G9C U10A C12A C13A | 1.25
U7A U8G G9A U10G U11A C12U C13A | 1.7
U7A U8G G9A U10G U11A C12U C13U | 1.27
U7A U8G G9A U10G U11A C12U C13G | 1.35
U7A U8G G9A U11A C12A C13U | 1.16
U7A U8G G9A U11A C12A C13A | 1.39
U7A U8G G9A U11A C12A C13G | 1.21

Variant | aptazyme ON/OFF ratio
U7A U8G G9A U11C C12A C13G | 1.3
U7A U8G G9A U11C C12A C13U | 1.38
U7A U8G G9A U11C C12A C13A | 1.14
U7A U8G G9A U10C U11C C12A | 1.13
U7A U8G G9A U10C U11C C12U | 1.08
U7A U8G G9A U10C U11C C12G | 1.07
U7A U8G G9A U10A U11C C12A | 1.44
U7A U8G G9A U10A U11C C12U | 1.04
U7A U8G G9A U10A U11C C12G | 1.37
U7A U8G G9C U10A U11G C12G C13A | 1.14
U7A U8G G9C U10A U11G C12G C13U | 1.25
U7A U8G G9C U10A U11G C12G C13G | 1.72
U7A U8G G9A U10A U11C C12A C13G | 1.33
U7A U8G G9A U10A U11C C12A C13A | 1.32
U7A U8G G9A U10A U11C C12A C13U | 1.16
U7A U8G G9A U10C C12A C13G | 1.14
U7A U8G G9A U10C C12A C13U | 1.12
U7A U8G G9A U10C C12A C13A | 1.05
U7A U8G G9A U10G U11G C13G | 1.42
U7A U8G G9A U10G U11G C13U | 1.22
